Laboratory results from publication PMC9348577, “Dimerization of kringle 1 domain from hepatocyte growth factor/scatter factor provides a potent MET receptor agonist” (Life Science Alliance, 2022).

Legend:
MET567 [1] = target: T1, MET567 (human, UniProt P08581 25-567); test: SPR; Biacore T200; MET567 immobilised at low density (515 RU) by amine coupling on a CM5 chip; 25°C, PBST (PBS + 0.05% Tween 20), 30 ul/min, 300-s injections to equilibrium; apparent KD from the binding isotherm; conditions: both partners purified
T1 construct: human MET receptor fragment MET567 comprising the N-terminal SEMA domain and the cysteine-rich/PSI domain; as I recall it spans residues 25-567 of MET; also called MET567 receptor fragment; MET567 fragment; source: CHO Lec 3.2.8.1 cells, purified as described in Gherardi et al (2003)

MET567 [2] = target: T1, MET567; test: SEC-SAXS; K1K1 in complex with MET567 injected on Superdex 200 PC 3.2/300 Increase on line with SAXS (ESRF BM29); 25 mM Tris (pH 7.4), 150 mM NaCl; conditions: both partners purified

T1 sequence (P08581 25-567): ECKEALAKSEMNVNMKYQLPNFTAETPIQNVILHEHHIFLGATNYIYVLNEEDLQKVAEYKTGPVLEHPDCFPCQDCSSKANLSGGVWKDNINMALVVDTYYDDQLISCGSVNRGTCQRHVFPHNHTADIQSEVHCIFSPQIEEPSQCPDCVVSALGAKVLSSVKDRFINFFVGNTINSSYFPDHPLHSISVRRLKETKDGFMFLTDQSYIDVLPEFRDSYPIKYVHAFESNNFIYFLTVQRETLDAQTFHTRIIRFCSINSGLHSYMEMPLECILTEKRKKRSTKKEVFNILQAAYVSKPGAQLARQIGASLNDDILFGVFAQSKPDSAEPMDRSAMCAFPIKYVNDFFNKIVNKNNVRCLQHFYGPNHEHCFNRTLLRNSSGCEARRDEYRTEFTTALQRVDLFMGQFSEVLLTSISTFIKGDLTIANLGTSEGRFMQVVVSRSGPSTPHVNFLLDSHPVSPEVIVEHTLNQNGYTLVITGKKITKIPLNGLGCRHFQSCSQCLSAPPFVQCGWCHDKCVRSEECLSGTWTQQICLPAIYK

Kd (MET567 [1]) [nM]	stoichiometry N (MET567 [2])	Binder
200		NK1 (natural protein, human, UniProt P14210 28-209, looked up, human NK1, splice variant of HGF/SF with the N-domain and the first kringle domain (K1), residues 28-209; also called recombinant human NK1 protein; wild-type NK1; source: Pichia pastoris, purified as described in Chirgadze et al (1999)) YAEGQRKRRNTIHEFKKSAKTTLIKIDPALKIKTKKVNTADQCANRCTRNKGLPFTCKAFVFDKARKQCLWFPFNSMSSGVKKEFGHEFDLYENKDYIRNCIIGKGRSYKGTVSITKSGIKCQPWSSMIPHEHSFLPSSYRGKDLQENYCRNPRGEEGGPWCFTSNPEVRYEVCDIPQCSEV
205	1	K1K1 (ligand, Intra-kringle disulphides (three per kringle). The initiator Met of the MAIRN construct is absent from the 7OCL entity, so paper numbering = entity number + 1. Layout: (M)AIRN + HGF 128-206 + SEVE + …) AIRNCIIGKGRSYKGTVSITKSGIKCQPWSSMIPHEHSFLPSSYRGKDLQENYCRNPRGEEGGPWCFTSNPEVRYEVCDIPQCSEVECIIGKGRSYKGTVSITKSGIKCQPWSSMIPHEHSFLPSSYRGKDLQENYCRNPRGEEGGPWCFTSNPEVRYEVCDIPQCSEVE
